Assay results taken from article PMC9063845.

What was measured:
Assay in all cases: SEC; preparative HiLoad 16/600 Superdex 200 pg (120 ml), 20 mM HEPES, 50 mM NaCl pH 7.5; elution at ~85 ml compared with protein standards (~60 kDa)
[1] = target: amilCP (Acropora millepora)
[2] = target: eforRed (Echinopora forsaliana)
[3] = target: gfasPurple (Galaxea fascicularis)
[4] = target: spisPink (Stylophora pistillata)

In the case of amilCP (natural protein), the stoichiometry N [1] is reported as 2.
For eforRed (natural protein), the stoichiometry N [2] was 2.
gfasPurple (natural protein) showed a stoichiometry N [3] of 2.
Substance spisPink (natural protein) has a stoichiometry N [4] of 2.
